Drawing on PMC9109717, this text covers Km for 1 protein.

Substrate in the series: Nc1ncnc2c1ncn2[C@@H]1O[C@H](CO)[C@H]2OP(=O)(O)O[C@H]21
Put plainly: purified protein. Particulars: pH 7.5. Format: biochemical, Thermobifida fusca.

B1: (Thermobifida fusca YX) (protein)
chain: MPEHDSTDDKHGIPPLDLRFWAKERGLRGKTYPLVCHSLDAAAAALVLWNEYLSPGLRDTIASSMETDEEHAGHCIAFWAGLHDIGKLTREFQQQIAIDLSAYPGEELSGEQRSHAAATGKWLPFALPSLGYPNGGLVTGLVAQMLGGHHGTFHPHPSFQSRNPLAEFGFSSPHWEKQRHALLHAVFDATGRPTPPDMLDGPTASVVCGLVILADWLVSQEDFLLERLTSLPADGSASALRAHFETSLRRIPSLLDAAGLRPITVPPATFTESFPHLSKPNGLQASLAKHLPCLCTGPGLVLITAPMGEGKTEAAYHVADLLGKATGRPGRFLALPTMATADQMHTRLKEYARYRVENTDLPRSSTLALLHSMAWLNPDYAPADLPGVSKVLSNLGHRDPFAATDWLMGRKRGLLAPWAVGTIDQALMAVLRAKHNALRLFGLAGKVVVVDEAHAVDPYMQVLLEQLLRWLGTLDVPVVLLSATLHHSIANSLVKAYLEGARGRRWNRSEPQPVSEVSYPGWLHVDARIGKVTRSSDVDPLPIATTPRKPLEVRLVDVPVKEGALNRSTVLAKELTPLVKQGGCAAIICTTVAEAQGVYDLLSQWFATLGEDAPDLYLLHSRFPNRQRTEITATIVDLFGKEGAQSGRRPTRGAVLVATQVVEQSLDLDVDLMISDLAPVSLLLQRAGRCWRHEHLGIINRPQWAKQPELVVLTPEQNGDADRAPWFPRSWTSVYPLALLQRTYTLLRRRNGAPVQIPEDVQQLVDDVYDDDSLAEDLEADMERMGEELAQRGLARNAVIPDPDDAEDNLNGLTEFSFDVDEHVLATRFGAGSVRVLCYYVDTAGNRWLDPECTVEFPEQGTGREGRFTMADCRDLVARTIPVRMGPWASQLTEDNHPPEAWRESFYLRDLVLIPQRVTDEGAVLPTETGGREWLLDPCKGLIF
For B1, the Km is listed as 27 (±6) mM.
